Test results: US9540428B2, “Extracellular matrix heparin-binding domains” (EPFL-TTO, priority 2012, dated 2017)

What was measured:
FGF-6 = biological target: T1, FGF-6 (Homo sapiens, UniProt P10767); test: ELISA binding to coated FGF-6; details: 50 nM cytokine coated
T1 sequence (P10767 38-208): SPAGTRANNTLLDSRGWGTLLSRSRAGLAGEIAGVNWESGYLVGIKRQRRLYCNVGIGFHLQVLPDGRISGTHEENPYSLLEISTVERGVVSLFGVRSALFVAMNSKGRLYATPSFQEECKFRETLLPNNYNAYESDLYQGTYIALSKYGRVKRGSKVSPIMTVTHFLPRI
Description: (§1) ELISA plates were coated with cytokines or BSA and further incubated with TNC III1-5 to analyze binding of TNC III1-5 to a wide variety of cytokines. […] Results are depicted in FIG. 3. Method: 50 nM of cytokine was coated for (1 hr, 37° C.). After blocking with 2% BSA (1 hr, RT). 100 nM TNC III1-5 was applied in PBST (0.05% tween, 0.1% bovine serum albumin (BSA)) (1 hr, RT). TNC III1-5 was detected with horseradish peroxidase (HRP)-anti-HIS in PBST (1 hr, RT) and developed with 3,3′,5,5′-tetramethylbenzidine (TMB), a soluble colorimetric HRP […]. Addition of sulfuric acid stop solution changes the color to yellow, enabling accurate measurement of the intensity at 450 nm using a spectrophotometer or plate reader. […] Heparin (4 μM) was added to TNC III1-5 to test the effect of blocking the heparin binding site of TNC III1-5, which has been defined as domain TNC III5 (Weber, Zimmermann, et al., 1995).

VEGF-C = biological target: T2, VEGF-C (Homo sapiens, UniProt P49767); test: ELISA binding to coated VEGF-C; details: 50 nM cytokine coated
T2 sequence (P49767 112-419): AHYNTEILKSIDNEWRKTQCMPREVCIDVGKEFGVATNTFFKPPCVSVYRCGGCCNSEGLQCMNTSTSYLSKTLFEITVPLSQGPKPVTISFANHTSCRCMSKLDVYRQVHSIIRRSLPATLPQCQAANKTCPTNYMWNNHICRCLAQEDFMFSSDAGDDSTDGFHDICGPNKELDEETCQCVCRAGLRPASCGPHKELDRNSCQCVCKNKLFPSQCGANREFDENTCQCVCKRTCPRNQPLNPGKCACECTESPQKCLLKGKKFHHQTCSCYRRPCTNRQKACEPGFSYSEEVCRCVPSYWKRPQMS
Description: as §1

B1: TNC III1-5: recombinant tenascin C fibronectin type III repeats 1-5 (E622 to A1074) with transglutaminase substrate NQEQVSPL and 6×His tag, SEQ ID NO:1 (protein)
chain: METDTLLLWVLLLWVPGSTGDAAQPAIEGRNQEQVSPLGGSEVSPPKDLVVTEVTEETVNLAWDNEMRVTEYLVVYTPTHEGGLEMQFRVPGDQTSTIIQELEPGVEYFIRVFAILENKKSIPVSARVATYLPAPEGLKFKSIKETSVEVEWDPLDIAFETWEIIFRNMNKEDEGEITKSLRRPETSYRQTGLAPGQEYEISLHIVKNNTRGPGLKRVTTTRLDAPSQIEVKDVTDTTALITWFKPLAEIDGIELTYGIKDVPGDRTTIDLTEDENQYSIGNLKPDTEYEVSLISRRGDMSSNPAKETFTTGLDAPRNLRRVSQTDNSITLEWRNGKAAIDSYRIKYAPISGGDHAEVDVPKSQQATTKTTLTGLRPGTEYGIGVSAVKEDKESNPATINAATELDTPKDLQVSETAETSLTLLWKTPLAKFDRYRLNYSLPTGQWVGVQLPRNTTSYVLRGLEPGQEYNVLLTAEKGRHKSKPARVKASTEQAGGGSHHHHHH
modifications: Tenascin III signal sequence with polyhistidine tag
FGF-6
  binding to FGF-6 (ELISA, signal above BSA background): positive binding
VEGF-C
  binding to VEGF-C (ELISA, signal above BSA background): positive binding
